B1: Csm2–Psy3 heterodimer (complex, S. cerevisiae)
chain 1: MEYEDLELITIWPSPTKNKLCQFIKQNLSKEHVVTQLFFIDATSSFPLSQFQKLVPPTLPENVRIYENIRINTCLDLEELSAITVKLLQILSMNKINAQRGTEDAVTEPLKIILYINGLEVMFRNSQFKSSPQRSHELLRDTLLKLRVMGNDENENASIRTLLEFPKEQLLDYYLKKNNNTRTSSVRSKRRRIKNGDSLAEYIWKYYADSLFE
chain 2: MEVLKNIRIYPLSNFITSTKNYINLPNELRNLISEEQESKLGFLHIIESDFKPSVALQKLVNCTTGDEKILIIDIVSIWSQQKQRQHGAIYMNSLSCINITGLIVFLELLYDSPMDALRRCQVDNFNFQLRGIVIDNLSFLNFESDKNYDVINLSKFEKLFKILRKLREFLGCWIITKSFPTDFYNGIENTLVDKWSIKRKSGVTLYPTKLPDSYMKGMDLIIYREVVDGRPQYRRIAALEE
B2: Rad51 (natural protein, S. cerevisiae, UniProt P25454 1-400, looked up)
chain: MSQVQEQHISESQLQYGNGSLMSTVPADLSQSVVDGNGNGSSEDIEATNGSGDGGGLQEQAEAQGEMEDEAYDEAALGSFVPIEKLQVNGITMADVKKLRESGLHTAEAVAYAPRKDLLEIKGISEAKADKLLNEAARLVPMGFVTAADFHMRRSELICLTTGSKNLDTLLGGGVETGSITELFGEFRTGKSQLCHTLAVTCQIPLDIGGGEGKCLYIDTEGTFRPVRLVSIAQRFGLDPDDALNNVAYARAYNADHQLRLLDAAAQMMSESRFSLIVVDSVMALYRTDFSGRGELSARQMHLAKFMRALQRLADQFGVAVVVTNQVVAQVDGGMAFNPDPKKPIGGNIMAHSSTTRLGFKKGKGCQRLCKVVDSPCLPEAECVFAIYEDGVGDPREEDE
B3: Shu complex (Csm2–Psy3–Shu1–Shu2) (complex, S. cerevisiae)
chain 1: B1 chain 1
chain 2: B1 chain 2
chain 3: MQFEERLQQLVESDWSLDQSSPNVLVIVLGDTARKYVELGGLKEHVTTNTVAGHVASRERVSVVFLGRVKYLYMYLTRMQAQANGPQYSNVLVYGLWDLTATQDGPQQLRLLSLVLRQCLSLPSKVEFYPEPPSSSVPARLLRFWDHIIR
chain 4: MSKDVIEYSKLFAKLVNTNDDTKLDDTIASFLYYMFPRELFIRAISLLESSDMFIYILDRVHNKEGNEHTSLIDVLVDEFYKGSSNSLLEYRLIVKDTNDGAPPILVDIAHWFCSCEEFCKYFHEALEKTDEKEELHDVLINEVDDHLQFSDDRFAQLDPHSLSKQWYFKFDKVCCSHLLAFSILLRSSINVLKFFTVNSNKVFVIAIDNIDEWLNLHINIVE
B4: Rad55–Rad57 complex (complex, S. cerevisiae)
chain 1: MSLGIPLSQLIVESPKPLSSGITGLDEILNLGFQARSIYEIFGPPGIGKTNFGIQLVCNSLEGIQQSEINDDKILWIETFQEMPINILRERFQKFKIVEENVKRVRITKFGQLLYFFQNLFKLSQSVRYKLVIIDGFSQLVCDHLCTLSKRGGGMIDKTIHELKCRHLILIFTVMTKYTHSTGSTIIVLNDCMNTAFQSNEFESLEEYYEILDDGSNFFVNSNNERRKNNVHILKSALVANIAMGSKDSTWEVFLRDRIGLFRDWNEQVDETVFVKSKRVKASSSQSNEGCTTIKEMRINKRNFENLRIAIVFNLHGEDRKREGRNLKRSRSSDDRNYIVKFDFDKATGQLRDIIDLKPDTANIASFPTLSTSSSSCSQVFNNIDSNDNPLPNAEGKEEIIYDSEG
chain 2: MPRALSIKFDNTYMDLYDELPESKLLYDEEFSYLLDAVRQNGVCVVDFLTLTPKELARLIQRSINEVFRFQQLLVHEYNEKYLEICEKNSISPDNGPECFTTADVAMDELLGGGIFTHGITEIFGESSTGKSQLLMQLALSVQLSEPAGGLGGKCVYITTEGDLPTQRLESMLSSRPAYEKLGITQSNIFTVSCNDLINQEHIINVQLPILLERSKGSIKLVIIDSISHHLRVELQNKSFRESQENKNYLDRMAEKLQILAHDYSLSVVVANQVGDKPLANSPVAHRTYVTDYDYQLGWLVGWKNSTILYRQMNSLLGASSNNDEILSDDEDYMLIERVMSTVNDRNYDFFSKKKPPIIENKTVERNSSSPISRQSKKRKFDYRVPNLGLTWSNHVSTRILLQKSFKASTIIQRGEAHLYKGGDSASFWQVKRTMKVVYSTFAKPGQIAYQITKRGIETA

Assays:
Conditions in all cases: both partners purified
Rad55–Rad57 complex [1] = target: B4; experiment: pull-down; His-tagged Rad55–Rad57 (0.5 μg) with Csm2–Psy3 (0.5 μg), captured on Ni-NTA resin through (His)6 on Rad55; buffer C (20 mM MOPS pH 7.2, 150 mM KCl, 1 mM ATP, 2 mM MgCl2, 15 mM imidazole), 4 °C, washes with 200 mM KCl; SDS-PAGE, Coomassie
Rad55–Rad57 complex [2] = target: B4; experiment: pull-down; pull-down with Rad51; set-up only in Supplementary Fig. 2b; also with Csm2–Psy3 added to Rad55–Rad57 and Rad51
Rad55–Rad57 complex [3] = target: B4; experiment: pull-down; Shu complex with Rad55–Rad57; set-up only in Supplementary Fig. 2a
GST-tagged Rad52 = GST-tagged Rad52 (S. cerevisiae, UniProt P06778 1-471); experiment: pull-down; GST–Rad52 with one partner, captured on glutathione resin; buffer with 100 mM KCl, no imidazole, 4 °C; anti-FLAG immunoblot (FLAG on Rad57 and Psy3)
GST-tagged Rad52, sequence (P06778 whole entry): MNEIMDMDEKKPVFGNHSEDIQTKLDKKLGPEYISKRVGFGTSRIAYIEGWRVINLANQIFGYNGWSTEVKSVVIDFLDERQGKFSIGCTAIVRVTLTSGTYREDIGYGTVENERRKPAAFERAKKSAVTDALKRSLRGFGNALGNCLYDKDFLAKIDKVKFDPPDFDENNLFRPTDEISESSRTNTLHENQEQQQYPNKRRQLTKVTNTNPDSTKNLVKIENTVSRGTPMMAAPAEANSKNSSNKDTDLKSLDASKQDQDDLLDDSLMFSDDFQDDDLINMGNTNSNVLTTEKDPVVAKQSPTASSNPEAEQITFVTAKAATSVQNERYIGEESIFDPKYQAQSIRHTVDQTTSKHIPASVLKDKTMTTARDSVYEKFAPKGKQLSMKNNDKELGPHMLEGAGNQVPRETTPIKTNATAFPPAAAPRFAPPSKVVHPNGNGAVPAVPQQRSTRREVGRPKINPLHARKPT

B1: binds (Rad55–Rad57 complex [1]).

B2: binds (Rad55–Rad57 complex [2]).

B3: binds (Rad55–Rad57 complex [3]).

B4: binds (GST-tagged Rad52).

— paper PMC4525180 (Nature communications, 2015)
